Here are results for 4 molecules from patent US20160031998A1 (CSL, published 2016).

Experiment [1] has as its target T1, human G-CSFR expressed on cells (Homo sapiens, UniProt Q99062 25-836).
T1 sequence: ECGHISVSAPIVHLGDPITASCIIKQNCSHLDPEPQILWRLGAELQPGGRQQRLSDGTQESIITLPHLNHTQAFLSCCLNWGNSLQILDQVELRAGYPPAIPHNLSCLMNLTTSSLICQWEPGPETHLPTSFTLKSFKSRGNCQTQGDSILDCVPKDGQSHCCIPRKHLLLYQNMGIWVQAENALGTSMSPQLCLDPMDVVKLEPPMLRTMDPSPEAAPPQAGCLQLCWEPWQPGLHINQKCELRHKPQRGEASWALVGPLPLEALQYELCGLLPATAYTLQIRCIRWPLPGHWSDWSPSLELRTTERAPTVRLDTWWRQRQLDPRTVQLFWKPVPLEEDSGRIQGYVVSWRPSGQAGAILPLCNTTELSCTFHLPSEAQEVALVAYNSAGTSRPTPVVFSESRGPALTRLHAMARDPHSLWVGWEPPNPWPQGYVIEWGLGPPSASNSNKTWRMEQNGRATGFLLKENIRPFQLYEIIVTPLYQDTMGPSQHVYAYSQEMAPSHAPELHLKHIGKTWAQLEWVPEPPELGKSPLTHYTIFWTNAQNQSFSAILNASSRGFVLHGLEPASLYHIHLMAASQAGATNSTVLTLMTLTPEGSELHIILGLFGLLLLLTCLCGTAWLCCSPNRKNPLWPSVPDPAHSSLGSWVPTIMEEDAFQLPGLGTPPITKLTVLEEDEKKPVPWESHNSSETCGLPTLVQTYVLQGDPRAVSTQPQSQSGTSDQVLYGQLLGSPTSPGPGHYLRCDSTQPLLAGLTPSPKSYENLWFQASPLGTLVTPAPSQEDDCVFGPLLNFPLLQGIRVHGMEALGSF
As to the kind of experiment: cell-based or functional assay.

Experiment [2] concerns the target T2, soluble hG-CSFR: amino acids 25-335 of Homo sapiens G-CSFR with mutations C78A, C163S and C228S and a … (Homo sapiens, UniProt Q99062 25-335).
T2 chain: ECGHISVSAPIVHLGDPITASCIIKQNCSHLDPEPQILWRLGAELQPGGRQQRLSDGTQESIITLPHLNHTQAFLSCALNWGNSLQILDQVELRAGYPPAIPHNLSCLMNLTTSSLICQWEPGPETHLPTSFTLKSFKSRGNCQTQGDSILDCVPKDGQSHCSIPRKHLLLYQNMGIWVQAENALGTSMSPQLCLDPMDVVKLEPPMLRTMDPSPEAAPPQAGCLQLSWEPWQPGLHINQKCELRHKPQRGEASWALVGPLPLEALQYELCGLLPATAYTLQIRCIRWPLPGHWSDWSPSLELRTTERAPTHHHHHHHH
Briefly: SPR (Biacore 2000), receptor immobilised on CM5 chip, IgG4 in solution. The method, then: (§1) Duplicate biosensor analysis of the antibodies c1.2 and 5D11 in IgG4 format were performed using a Biacore 2000 with a doubling dilution of the antibodies (312 nM to 2.4 nM in 0.1 mg/ml BSA) at a flow rate of 30 ul/min. Binding (100 μl) was monitored to respective flow cells containing control immobilized blank, immobilized cyno-G-CSFR-Fc, immobilized hG-CSFR-Fc and immobilized hG-CSFR. Receptor proteins (20 ug per ml in 20 mM Sodium Acetate pH 4.5) were previously immobilized to a CM5 chip using a NHS/EDC coupling kit as per the manufacturer's instructions (Biacore GE, Sweden). Target immobilization values were set at 700, 700 and 500 resonance units for cyno-G-CSFR-Fc, hG-CSFR-Fc and hG-CSFR, respectively. Chip immobilization was quenched with 50 mM ethanolamine pH 8.0. Dissociation of surface binding was monitored for 1000 seconds prior to desorption of the remaining complex using 50 mM Phosphoric acid. Reference binding was then subtracted from the control channel and kinetics generated using biaevaluation software on the Biacore 2000.
A general note: SPR reads the build-up and loss of mass on a sensor chip optically.

Experiment [3] addresses T3, hG-CSFR-Fc: polypeptide of SEQ ID NO: 1 in which the C-terminal polyhistidine tag is replaced with an Fc … (Homo sapiens, UniProt Q99062 25-335).
T3 construct: the Fc is not specified; also called human G-CSFR-Fc; hG-CSFR-Fc fusion
T3 chain: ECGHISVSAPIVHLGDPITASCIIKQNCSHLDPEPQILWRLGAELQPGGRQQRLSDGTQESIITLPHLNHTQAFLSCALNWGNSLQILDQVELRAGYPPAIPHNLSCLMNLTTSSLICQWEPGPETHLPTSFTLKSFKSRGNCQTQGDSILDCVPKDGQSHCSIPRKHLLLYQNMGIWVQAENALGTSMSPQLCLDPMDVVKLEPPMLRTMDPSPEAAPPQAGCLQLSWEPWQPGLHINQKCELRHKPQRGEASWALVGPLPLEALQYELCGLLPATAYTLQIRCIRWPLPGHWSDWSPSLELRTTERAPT
Described as above. The method, then:
as §1

For experiment [4], the target named is T4, cynoG-CSFR-Fc: corresponding segment of cynomolgus monkey G-CSFR with an Fc sequence attached to its … (Macaca fascicularis, UniProt Q99062 25-335 (human entry)).
T4 construct: the Fc is not specified; also called cynomolgus monkey G-CSFR-Fc
T4 chain: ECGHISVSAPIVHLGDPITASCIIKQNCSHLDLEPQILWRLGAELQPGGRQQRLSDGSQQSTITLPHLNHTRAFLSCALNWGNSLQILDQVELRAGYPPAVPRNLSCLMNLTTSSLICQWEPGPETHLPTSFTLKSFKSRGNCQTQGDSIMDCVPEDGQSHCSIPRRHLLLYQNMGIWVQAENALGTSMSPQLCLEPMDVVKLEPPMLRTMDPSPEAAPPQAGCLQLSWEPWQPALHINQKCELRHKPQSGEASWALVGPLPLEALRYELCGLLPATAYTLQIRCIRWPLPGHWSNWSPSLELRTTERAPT
Described as above. The method, then: as §1

The target in experiment [5] is T1, human G-CSFR expressed on cells. As to the kind of experiment: cell-based or functional assay. The source holds these as a separate data set.
Experiment [6] addresses T2, soluble hG-CSFR: amino acids 25-335 of …. Briefly: SPR (Biacore), mAb captured by anti-human IgG, soluble hG-CSFR injected. The method, then:
Soluble hG-CSFR was injected for 5 minutes and dissociation was monitored for 30 minutes. Responses from a reference flow cell (in which mAb was not captured, but otherwise treated identically), were subtracted. The responses from a blank injection were then subtracted from the resultant sensorgrams.
The final corrected responses were fitted using non-linear regression to a model describing 1:1 kinetics, including a term for mass transport limitation. The Rmax value was fitted locally, to account for slight deviations in the level of mAb captured. Association rate (ka), dissociation rate (kd) and equilibrium dissociation constant (KD) were determined.

For experiment [7] the target is unchanged. As to the kind of experiment: SPR (Biacore 2000), receptor immobilised on CM5 chip, Fab in solution. The method, then:
(§2) Duplicate biosensor analysis of the Fab were performed using a Biacore 2000 (GE, Sweden) with a doubling dilution of Fab antibodies (100 nM to 0.39 nM in 0.1 mg/ml BSA) at a flow rate of 30 μl/min. Binding (100 μl) was monitored to respective flow cells containing control immobilised blank, immobilized cyno G-CSFR-Fc, immobilized human G-CSFR-Fc and immobilized human G-CSFR. Receptor proteins (20 μg per ml in 20 mM Sodium Acetate pH 4.5) were previously immobilized to a CM5 chip using a NHS/EDC coupling kit as per the manufacturer's instructions (Biacore GE, Sweden). Target immobilization values were set at 700, 700 and 500 resonance units for cyno G-CSFR-Fc, hG-CSFR-Fc and hG-CSFR, respectively. Chip immobilisation was quenched with 50 mM ethanolamine pH 8.0. Dissociation of surface binding was monitored for 1000 seconds prior to desorption of the remaining complex using 50 mM Phosphoric acid. Reference binding was then subtracted from the control channel and kinetics generated using biaevaluation software on the Biacore 2000.

For experiment [8], the target named is T3, hG-CSFR-Fc: polypeptide of SEQ ID NO: 1 …. The description is as above. The method, then:
as §2

The target of experiment [9] is T4, cynoG-CSFR-Fc: corresponding segment of …. The experiment is described as above. The method, then:
as §2

Experiment [10] deals with T5, wild type hG-CSFR (soluble, corresponding extracellular domains of the wild type receptor) (Homo sapiens, UniProt Q99062 25-335).
T5 construct: also called wt hG-CSFR
T5 sequence: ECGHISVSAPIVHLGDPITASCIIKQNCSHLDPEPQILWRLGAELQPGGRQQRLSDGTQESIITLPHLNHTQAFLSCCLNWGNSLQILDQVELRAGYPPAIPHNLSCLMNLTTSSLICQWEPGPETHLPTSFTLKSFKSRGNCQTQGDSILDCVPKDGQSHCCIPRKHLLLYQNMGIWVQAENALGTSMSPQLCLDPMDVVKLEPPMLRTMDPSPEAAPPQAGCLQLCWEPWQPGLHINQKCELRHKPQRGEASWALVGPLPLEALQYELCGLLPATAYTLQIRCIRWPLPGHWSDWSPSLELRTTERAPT
As to the kind of experiment: SPR (Biacore), mAb captured by anti-Fc, soluble wild type receptor injected.

Experiment [11] has as its target T1, human G-CSFR expressed on cells. Briefly: binding to BaF3 cells expressing hG-CSFR; method not described; hG-CSFR on the cell surface of BaF3 cells.

B1: C1.2 IgG4 antibody (antibody, V domains shown)
VH: EVQLLESGGGLVQPGGSLRLSCAASGFTFSLYWMGWVRQAPGKGLEWVSSISSSGGVTPYADSVKGRFTISRDNSKNTLYLQMNSLRAEDTAVYYCAMLGELGWFDPWGQGTLVTVSS
VL: DIQMTQSPSALSASVGDRVTITCRASQGISSYLNWYQQKPGKAPKLLIYYASNLQNGIPSRFSGSGSGTDFTLTISSLQPEDFATYHCQQSYSTPLTFGGGTNVEIR
notes: human IgG4 format; also called C1.2 Ab
B1: in [1], the “IC50, inhibition of CFU-G formation by CD34+ bone marrow cells in the presence of G-CSF” value is 0.016 nM. In addition, the “IC50, inhibition of G-CSF-mediated proliferation of BaF3 cells expressing hG-CSFR” value in [1] is 0.5 nM. The Kd in experiment [2] is 0.027 nM; in experiment [3] it was 0.077 nM; in experiment [4] it was 0.054 nM.

B2: C1.2G-1000 (antibody, human IgG4, V domains shown)
VH: EVQLLESGGGLVQPGGSLRLSCAASGFTFSLYWMGWVRQAPGKGLEWVSSISSSGGVTPYADSVKGRFTISRDNSKNTLYLQMNSLRAEDTAVYYCAKLGELGQMMYWGQGTLVTVSS
VL: DIQMTQSPSSLSASVGDRVTITCRASQGISSYLNWYQQKPGKAPKLLIYYASNLQNGVPSRFSGSGSGTDFTLTISSLQPEDFATYYCQQSWMYAHMFGGGTKVEIK
notes: also called antibody 1000
With B2, the “IC50 (nM), inhibition of G-CSF-mediated proliferation of BaF3 cells” value in [5] is 0.34 nM. Moreover, in experiment [6], the affinity, expressed as Kd, was 0.182 nM.

B3: C1.2 Fab (Fab, V domains shown)
VH: EVQLLESGGGLVQPGGSLRLSCAASGFTFSLYWMGWVRQAPGKGLEWVSSISSSGGVTPYADSVKGRFTISRDNSKNTLYLQMNSLRAEDTAVYYCAMLGELGWFDPWGQGTLVTVSS
VL: DIQMTQSPSALSASVGDRVTITCRASQGISSYLNWYQQKPGKAPKLLIYYASNLQNGIPSRFSGSGSGTDFTLTISSLQPEDFATYHCQQSYSTPLTFGGGTNVEIR
notes: human Fab (papain digest of the antibody or E. coli expression); also called Fab C1.2
Take B3: the Kd in experiment [7] stood at 0.37 nM; in experiment [8], 0.33 nM; in [9], 0.39 nM.

B4: C1.2G (germlined C1.2), human IgG4 (antibody, V domains shown)
VH: EVQLLESGGGLVQPGGSLRLSCAASGFTFSLYWMGWVRQAPGKGLEWVSSISSSGGVTPYADSVKGRFTISRDNSKNTLYLQMNSLRAEDTAVYYCAKLGELGWFDPWGQGTLVTVSS
VL: DIQMTQSPSSLSASVGDRVTITCRASQGISSYLNWYQQKPGKAPKLLIYYASNLQNGVPSRFSGSGSGTDFTLTISSLQPEDFATYYCQQSYSTPLTFGGGTKVEIK
notes: Human IgG4/kappa; also called C1.2 germline mAb; C1.2G (human IgG4)
As for B4, the “IC50, inhibition of G-CSF-mediated proliferation of BaF3 cells expressing hG-CSFR (3H-thymidine incorporation)” value in experiment [1] was 0.8 µg/mL. Further, in experiment [5], the “IC50 (nM), inhibition of G-CSF-mediated proliferation of BaF3 cells” value was found to be 0.32 nM. Also, the values for the Kd in experiment [10] and in [11] were 1.4 nM and 0.257 nM, respectively.

One may read the Kd as the equilibrium constant for the complex coming apart.
